Data published in patent publication US20110206671A1, “AXON REGENERATION PROMOTER” (priority 2004, published 2011).

Tests used:
[1] = test system: cerebellar granule neurons on rat RGM-like protein-expressing CHO cells; experiment: Axon growth assay, coculture of cerebellar granule neurons on RGM-CHO cells; format: cell-based; details: 10 μM Y27632 added, 24 hours, compared with control CHO cells
Protocol: Cerebellar granule cells from rat pups at 8 days post-natal (P8) were dissociated by trypsinization (0.25% trypsin in PBS, 37° C., 15 minutes); resuspended in serum-containing medium; triturated; and washed three times with PBS. For the coculture assay, neurons were plated onto a confluent monolayer of RGM-CHO cells or control CHO cells in chamber slides. 10 μM Y27632 (Welfide Corporation, Osaka) was added to the cultures to inhibit ROCK (Rho kinase). The cultures were grown for 24 hours in serum-free DMEM/F12 medium.
(§1) For the soluble RGM assay, confluent monolayers of RGM-CHO cells or control CHO cells were incubated in serum-free DMEM/F12 with or without 2.5 U/mL PI-PLC (phosphatidylinositol-specific phospholipase C, Sigma). After the culture were centrifuged for 10 minutes at 13000 g, floating cells were removed by collecting the supernatant. A portion of the supernatant was subjected to Western blot analysis. Neurons were plated on the conditioned media on poly-L-lysine-coated chamber slides and were incubated for 12 or 24 hours. For the axon assay, the cells were fixed with 4% (w/v) paraformaldehyde and immunostained with a monoclonal antibody that recognizes β-tubulin III protein specifically present in neurons (TuJ1, 1:1000, Covance Research Products, Inc., Denver, USA). The length of the longest neurite for each β-tubulin III-positive neuron was then measured.

[2] = test system: cerebellar granule neurons; experiment: Soluble RGM axon growth assay with conditioned media; format: cell-based, rat; details: medium obtained by PI-PLC treatment of RGM-like protein-expressing CHO cells; versus control CHO medium
Protocol: as §1

[3] = test system: RhoA; experiment: Affinity precipitation of GTP-RhoA; format: cell-based, rat; details: cerebellar neurons from 7-day postnatal rats; 30 minutes after conditioned medium
Protocol: Cells were lysed in 50 mM Tris (pH 7.5) containing 1% Triton X-100 (TM), 0.5% sodium deoxycholate, 0.1% SDS, 500 mM NaCl, 10 mM MgCl2, 10 μg/mL leupeptin, and 10 μg/mL aprotinin.
The cell lysate was cleared by centrifugation at 4° C. for 10 minutes×13000 g, and the supernatant was incubated for 45 minutes at 4° C. with 20 μg GST-Rho binding domain of Rhotekin beads (TM, Upstate Biotech). The beads were washed four times with washing buffer (50 mM Tris (pH 7.5) containing 1% Triton X-100 (TM), 150 mM NaCl, 10 mM MgCl2, and 10 μg/mL each of leupeptin and aprotinin). Bound Rho was detected by Western blotting using monoclonal antibody against RhoA (Santa Cruz Biotech, Santa Cruz, Calif., USA).
The RhoA activity in neurons was measured. Conditioned medium was added to cerebellar neurons from 7-day postnatal rats and the RhoA activity was measured after 30 minutes had elapsed (FIG. 6).

For `CC(N)[C@H]1CC[C@H](C(=O)Nc2ccncc2)CC1` (stereo partly drawn) [Y27632], the “axon growth (average length of the longest axon of each neuron)” value [1] was “axon growth was about the same as for the control”.

B1: RGM-like protein: rat protein homologous to chicken repulsive guidance molecule, released from RGM-CHO cells by PI-PLC; SEQ ID NO: 4 (protein, listed as Rattus norvegicus)
chain: MGRGAGRSALGLWPTLAFLLCSFPAAISPCKILKCNSEFWSATSSGSHAPASDDVPEFCAALRTYALCTRRTARTCRGDLAYHSAVHGIEDLMSQHNCSKDGPTSQPRVRTLPPAGDSQERSDSPEICHYEKSFHKHSAAPNYTHCGLFGDPHLRTFTDHFQTCKVQGAWPLIDNNYLNVQVTNTPVLPGSAATATSKLTIIFKNFQECVDQKVYQAEMDELPSAFADGSKNGGDKHGANSLKITEKVSGQHVEIQAKYIGTTIVVRQVGRYLTFAVRMPEEVVNAVEDRDSQGLYLCLRGCPLNQQIDFQAFRANAESPRRPAAASPSPVVPETFPYETAVAKCKEKLPVEDLYYQACVFDLLTTGDVNFTLAAYYALEDGKMLHSNKDKLHLFERTRELPGAVAAAAFPLAPEMLPGTVTLLVLLPLFW
B1 was tested, and the “axon growth of neurons treated with conditioned medium” value [2] was “significantly inhibited” and the “RhoA activity in neurons (GTP-RhoA)” value [3] was “Rho activation was confirmed”.
